The text below walks through data of PMC11610669, “A Spectroscopic Study on the Amyloid‐β Interaction with Clicked Peptide‐Porphyrin Conjugates: a Vision Toward the Detection of Aβ Peptides in Aqueous Solution” (Chembiochem, 2024).

B1: copper porphyrin-peptide conjugate Cu-Ph-Pep (peptide)
peptide: Ac-GKPGKLVFF-NH2
modifications: not fully specified (residue 2); also: porphyrin as Cu(II) complex
notes: designed N-terminal stretch of Ac-GK(N3)PGKLVFF-NH2; the K is the azidolysine that carries the porphyrin; hydrophobic core Aβ16-20 (KLVFF) of amyloid-β; numbers count on: the Aβ peptide; MALDI-TOF (M+H)+ 1937.73; calcd. for C103H118CuN22O13 1936.77; Structure drawn in Scheme 1; source: synthetic peptide (MW-SPPS), clicked in solution to Cu-Ph-Pra-OMe (CuAAC), purified by preparative HPLC
B2: unmetalated porphyrin-peptide conjugate Ph-Pep (peptide)
peptide: Ac-GKPGKLVFF-NH2
modifications: not fully specified (residue 2)
notes: designed N-terminal stretch of Ac-GK(N3)PGKLVFF-NH2; the K is the azidolysine that carries the porphyrin; hydrophobic core Aβ16-20 (KLVFF) of amyloid-β; numbers count on: the Aβ peptide; MALDI-TOF (M+H)+ 1876.12; calcd. for C103H121N22O13 1875.24; Structure drawn in Scheme 1 and Scheme 3; source: synthetic peptide (MW-SPPS), clicked on resin to Pra-OMe (CuAAC), porphyrin coupled on resin, cleaved …
B3: zinc porphyrin-peptide conjugate Zn-Ph-Pep (peptide)
peptide: Ac-GKPGKLVFF-NH2
modifications: not fully specified (residue 2); also: porphyrin as Zn(II) complex
notes: designed N-terminal stretch of Ac-GK(N3)PGKLVFF-NH2; the K is the azidolysine that carries the porphyrin; hydrophobic core Aβ16-20 (KLVFF) of amyloid-β; numbers count on: the Aβ peptide; MALDI-TOF (M+H)+ 1939.43; calcd. for C103H119ZnN22O13 1938.60; Structure drawn in Scheme 1 and Scheme 3; source: synthetic: Ph-Pep metalated with Zn(CH3COO)2, purified by RP-HPLC

T1 sequence (P05067 672-713): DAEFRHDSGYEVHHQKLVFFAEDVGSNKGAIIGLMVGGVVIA

This assay concerns the target T1, Amyloid-β 42 peptide (UniProt P05067 672-713).
T1 construct: Amyloid-β peptide 1-42 (Aβ42), the cut product of the amyloid precursor protein; numbers count on: the Aβ peptide; For GCI it was immobilised on a polycarboxylate chip from Na acetate pH 4.5; also called Aβ42; Aβ
The experiment in a line: grating-coupled interferometry (GCI); Creoptix WAVE; Aβ42 immobilised on a 4PCH chip (1910±40 pg/mm^2); analytes injected as single-cycle 1:2 dilution series in PBS, 0.005 % Tween 20, 1 % DMSO, 0.2 mg/ml BSA; 25 °C; 100 μl/min; mass transport binding model with bulk correction. The note with it: both partners purified.
Take B1: the affinity, expressed as Kd, was 44 ± 6 µM; the koff worked out at 0.0931 s⁻¹; the kon was 2100 M⁻¹ s⁻¹.
As to B2, binding was put at a Kd of 60 ± 1 µM, the koff worked out at 0.0819 s⁻¹ and the kon worked out at 1370 M⁻¹ s⁻¹.
In the same order, the values of B3 are 46 ± 6 µM, 0.002 s⁻¹ and 110 M⁻¹ s⁻¹.
